Biological target: T1, human VEGFC (Cat. No. Z03286, Genscript) (human, UniProt P49767 112-227, limits assumed)
T1 construct: Bought protein; also called VC
T1 sequence (looked up): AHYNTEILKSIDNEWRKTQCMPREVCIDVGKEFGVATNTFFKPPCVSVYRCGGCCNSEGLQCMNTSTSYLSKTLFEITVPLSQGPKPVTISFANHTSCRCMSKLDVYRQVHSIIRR
Test: SPR (Biacore), protein captured on protein A chip, VEGFC as analyte, 25 C
Method: Human VEGFC (Cat. No.: Z03286-10 μg, Genscript, China) solutions with concentrations of 10, 5, 2.5, 1.25, 0.63, 0.31, 0.16, 0.08, and 0 (blank) nM were produced by diluted into a running buffer. Each analysis cycle comprises: (1) capturing the bispecific protein on flow pool 2 (Fc2), (2) injecting the VEGFC solution onto flow cells 1 and 2 (Fc1 and Fc2) at a rate of 30 μL/minute (for 120 seconds), (3) allowing 1×HBS-EP+buffer to flow at 30 μL/minute through the chip for 360 seconds to monitor the dissociation phase, (4) injecting a 10 mM glycine hydrochloride buffer, pH 1.5, to allow surface regeneration of the chip. The data was processed by Biacore™ Insight Evaluation software, using standard double reference and fitting with a 1:1 binding model, to determine the binding rate (kₐ) and dissociation rate (kd).

B1: OPT-302 (other, not shown: a dimerising Fc or GST; small tags and cut ends)
chain: YSMTPPTLNITEESHVIDTGDSLSISCRGQHPLEWAWPGAQEAPATGDKDSEDTGVVRDCEGTDARPYCKVLLLHEVHAQDTGSYVCYYKYIKARIEGTTAASSYVFVRDFEQPFINKPDTLLVNRKDAMWVPCLVSIPGLNVTLRSQSSVLWPDGQEVVWDDRRGMLVSTPLLHDALYLQCETTWGDQDFLSNPFLVHITGNELYDIQLLPRKSLELLVGEKLVLNCTVWAEFNSGVTFDWDYPGKQAERGKWVPERRSQQTHTELSSILTIHNVSQHDLGSYVCKANNGIQRFRESTEVIVHE
notes: captured on protein A chip
- Kd: 0.562 nM
- koff: 0.0033 s⁻¹
- kon: 5.87e+06 M⁻¹ s⁻¹

Reference: patent publication US20240343791A1 (YUANPU BIOTECHNOLOGY WUHAN, published 2024)
